The results in this text go back to patent US20190248902A1 (published 2019).

For one assay, the target named is T1, Cyno ASGR-1 (cynomolgus monkey, UniProt P07306 1-291 (human entry)).
T1 construct: Expressed on HEK 293 cells or as membrane prep on beads; cDNA from XP_005582755; also called cynomologus monkey ASGR-1
T1 chain: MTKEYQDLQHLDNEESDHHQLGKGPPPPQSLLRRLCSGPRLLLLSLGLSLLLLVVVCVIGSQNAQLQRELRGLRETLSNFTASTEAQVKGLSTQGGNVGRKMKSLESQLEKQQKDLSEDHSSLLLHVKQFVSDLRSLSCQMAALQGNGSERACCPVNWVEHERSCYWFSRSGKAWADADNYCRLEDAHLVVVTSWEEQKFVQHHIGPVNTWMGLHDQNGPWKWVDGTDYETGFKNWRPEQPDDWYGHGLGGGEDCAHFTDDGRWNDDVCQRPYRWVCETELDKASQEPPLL
In words: FACS on transfected HEK 293 cells or membrane preps on beads; Y = signal at least 2x irrelevant IgG. Here is the method: (§1) Human ASGR-1-specific, ligand competing antibody samples were tested for binding to ASGR-1 from other species (cynomologus monkey ASGR-1, mouse ASGR-1, rat ASGR-1, dog ASGR-1, and pig ASGR-1) as well as to human ASGR-2 in FACS binding assays at normalized antibody concentrations. For cell-based assays, HEK 293 cells expressing the appropriate antigen of interest were mixed with antibody sample or controls, incubated for 1 hour at 4° C., and then washed twice. Cells with bound antibody were then incubated with Alexa Fluor® 647 IgG Fc fragment-specific detection antibody and 7-AAD viability stain for 15 minutes at 4° C., washed once and resuspended in FACS buffer. Samples were analyzed using a BD Accuri™ Flow Cytometer and an Intellicyt HyperCyt Autosampler. As a negative control, supernatants and controls were also screened against HEK 293 cells transfected with empty parental vector. […] For membrane-prep binding assays, ASGR-1 species specific membrane preps were used to coat LumAvidin® microspheres (beads) and tested for binding to selected hybridoma supernatants or controls. Briefly, ASGR-1 species specific membrane preps were incubated with streptavidin-coated LumAvidin® beads for 45 minutes in the dark at room temperature and washed twice. Beads were resuspeneded in FACS buffer containing Stabilguard®. Antigen-bound beads were then incubated with normalized antibody sample for 1 hour in the dark at room temperature, washed twice, incubated with Alexa Fluor® 488 IgG Fc fragment-specific detection antibody for 15 minutes in the dark at room temperature, washed once and finally resuspended in FACS buffer. Samples were analyzed using an Intellicyt iQue™ Screener Platform. FACS buffer supplemented with 1 mM Calcium Chloride was used in all steps. As a negative control, supernatants and controls were also screened against a non-ASGR-1 antigen membrane prep coated on the LumAvidin® beads.

For a further assay, the target named is T2, Mouse ASGR-1 (mouse, UniProt P34927 1-284).
T2 construct: Expressed on HEK 293 cells or as membrane prep on beads; cDNA GenBank BC022106.1; also called muASGR-1; mASGR-1
T2 sequence: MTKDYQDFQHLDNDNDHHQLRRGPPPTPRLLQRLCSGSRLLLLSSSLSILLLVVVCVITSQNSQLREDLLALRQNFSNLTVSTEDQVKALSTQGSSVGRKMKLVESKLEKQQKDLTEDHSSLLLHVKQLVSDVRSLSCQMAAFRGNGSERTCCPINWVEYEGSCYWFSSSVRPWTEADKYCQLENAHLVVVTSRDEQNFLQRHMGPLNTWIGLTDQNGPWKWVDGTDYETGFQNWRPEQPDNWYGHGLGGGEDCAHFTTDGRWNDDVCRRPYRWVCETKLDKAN
In words: FACS on transfected HEK 293 cells or membrane preps on beads; binding = signal at least 2x irrelevant IgG. Here is the method: as §1

A further assay deals with T3, Pig ASGR-1 (pig).
T3 construct: Expressed on HEK 293 cells or as membrane prep on beads; cDNA GenBank NM_001244458
T3 chain: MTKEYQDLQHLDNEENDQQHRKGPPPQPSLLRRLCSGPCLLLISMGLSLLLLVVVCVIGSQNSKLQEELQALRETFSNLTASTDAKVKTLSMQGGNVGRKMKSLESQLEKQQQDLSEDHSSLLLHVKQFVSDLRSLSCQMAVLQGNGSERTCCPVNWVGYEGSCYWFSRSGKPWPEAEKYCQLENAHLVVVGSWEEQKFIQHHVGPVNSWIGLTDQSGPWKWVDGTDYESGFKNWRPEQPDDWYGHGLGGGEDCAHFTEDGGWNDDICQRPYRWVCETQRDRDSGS
In words: FACS on transfected HEK 293 cells or membrane preps on beads; Y = signal at least 2x irrelevant IgG. Here is the method:
as §1

B1: 22G5 (antibody, V domains shown)
VH: EVQLLESGGGLVQPGGSLRLSCAASGFTFSSYAMNWVRQAPGMGLEWVSVISRSGGYTYYADSVKGRFTISRDNSKNTLYLQMNSLRAEDTAVYYCASRLAVAGSEAFDIWGQGTLVTVSS
VL: DIQMTQSPSSLSASVGDRVTITCRASQNISSYLNWYQQKQGKAPKLLIYAASSLQNGVPSRFSGRGSGTDFTLTISSLQPEDFATYYCQQSYRTPLFTFGPGTKVDFK
notes: Tested as hybridoma supernatant at normalized concentration
For the molecule B1, the binding result with Cyno ASGR-1 is recorded as “binds”; with Mouse ASGR-1, “no binding”.

B2: 190F8 (antibody, V domains shown)
VH: QVQLVESGGGVVQPGRSLRLSCAASGFTFSTYGMHWVRQAPGKGLEWVAVIWYDGSNKNYADSVKGRFTISRDNSKNTLYLQMNSLRAEDTAVYYCARDQGVGYDGLDVWGQGTTVTVSS
VL: DIQMTQSPSSLSASVGDRVTITCRTSQGIGNYLAWFQQKPGKAPKSLLYKASSLQSGVPSKFSGSGSGTDFTLTISSLQPEDFATYYCQQYMTYPLTFGGGTKVEIK
notes: as for B1
As to B2, the binding result in the assay with Cyno ASGR-1 is given as “binds”; with Pig ASGR-1 it was “binds”; with Mouse ASGR-1, “no binding”.

B3: 197G3 (antibody, V domains shown)
VH: QVQLVESGGGVVQPGRSLRLSCVASGFTFSSHGMHWVRQAPGKGLEWVAVIWYDGSNKNYADSVKGRFTISRDNSKNTLYLQMNSLRAEDTAVYYCARDPSVGYDGMDVWGQGTTVTVSS
VL: DIQMTQSPSSLSASVGDRVTITCRASQGIGNHLAWFQQKPGKAPKSLIYAASSLQSGVPSKFSGSRSGTDFSLTISSLQPEDFATYYCQQYSNYPVTFGPGTKVDIK
notes: as for B1
B3: the results for the binding result with Cyno ASGR-1, in the assay with Pig ASGR-1 and in the assay with Mouse ASGR-1 were “binds”, “binds” and “no binding”, respectively.

B4: 194C1 (antibody, V domains shown)
VH: QVQLVESGGGVVQPGRSLRLSCAASGFTFSSYGMHWVRQAPGKGLEWVAVIWYDGSNEHYADSVKGRFTISRDNSKNTLYLQMNSLRAEDTAVYYCARNRGVGYYGLDVWGQGTTVTVSS
VL: DIQMTQSPSSLSASVGDRVTITCRASQGISNYLAWFQQKPGKAPKSLIYAASSLQSGVPSKFSGSGSGTDFTLTISSLQPEDFATYYCLHYLTYPLTFGGGTKVEIK
notes: as for B1
As for B4, the binding result with Cyno ASGR-1 is reported as “binds”; with Pig ASGR-1, “binds”; with Mouse ASGR-1, “no binding”.

B5: 198G3 (antibody, V domains shown)
VH: QVQLVESGGGVVQPGRSLKLSCAASGFTFSTYGMHWVRQAPGKGLEWVAVIWYDGTNKNYADSVKGRFTISRDNSKNTLCLQMNSLRAEDTAVYYCARDQGVGYDGLDVWGQGTTVTVSS
VL: DIQMAQSPSSLSASVGDRVTITCRTSQGIGKYLAWFQQKPGKAPKSLLYKASSLQGGVPSKFSGSGSGTDFTLTISSLQPEDFATYYCQQYMTYPLTFGGGTKVEIK
notes: as for B1
Turning to B5, the binding result was “binds” with Cyno ASGR-1, “binds” in the assay with Pig ASGR-1 and “no binding” with Mouse ASGR-1.

B6: 191G10 (antibody, V domains shown)
VH: QVQLVESGGGVVQPGRSLRLSCAASGFTFSSYGMHWVRQAPGKGLEWVAVIWYDGSNKNYADSVKGRFTISRDNSKNTLYLQMNSLRAEDTAVYYCARDQGVGYDGLDVWGQGTTVTVSS
VL: DIQMTQSPSSLSASVGDRVTITCRTSQGIGKYLAWFQQKPGKAPKSLLYKVSSLQSGVPSKFSGSGSGTDFTLTISSLQPEDFATYYCQQYMTYPLTFGGGTKVEIK
notes: as for B1
For the molecule B6, the binding result in the assay with Cyno ASGR-1 is on record as “binds”; in the assay with Pig ASGR-1, “binds”; with Mouse ASGR-1 it was “no binding”.

B7: 191G1 (antibody, V domains shown)
VH: QVQLVESGGGVVQPGRSLRLSCAASGFTFSSYGMHWVRQAPGKGLEWVAVIWYDGSNEHYADSVKGRFTISRDNSKNTLYLQMNSLRAEDTAVYYCARDRGVGYYGLDVWGQGTTVTVSS
VL: DIQMTQSPSSLSASVGDRVTITCRASQGISNYLAWFQQKPGKAPKSLIYAASSLQSGVPSKFSGSGSGTDFTLTISSLQPEDFATYYCQHYLTYPLTFGGGTKVEIK
notes: as for B1
On to B7, for which the binding result with Cyno ASGR-1 was “binds”; in the assay with Pig ASGR-1 it was “binds”; in the assay with Mouse ASGR-1 it was “no binding”.

B8: 75G3 (antibody, V domains shown)
VH: QVQLQQWGAGLLKPSETLSLTCAVYGGSLSGSYWSWIRQPPGKGLEWIGEINLSGSTNYNPSLKSRVTISVDTSKSQFSLTLRSVTAADTAVYYCARDYGGLDYWGQGTLVTVSS
VL: EIVLTQSPGTLSLSPGERATLSCRARQNVDSSYLAWYQQKPGQAPRLLIYGASSRATGIPDRFSGSGSGTDFTLTISRLEPEDFAVFYCQQYERSPWTFGQGTKVEIK
notes: as for B1
Regarding B8, the binding result in the assay with Cyno ASGR-1 is reported as “binds”; in the assay with Pig ASGR-1 it was “binds”; with Mouse ASGR-1, “no binding”.

B9: 218G4 (antibody, V domains shown)
VH: QVQLVESGGGVVQPGRSLRLSCAASGFTFSSYGLHWVRQAPGKGLEWVAVIWYDGSNKYYADSVKGRFTISRDNSKNTLYLQMNSLRVEDTAVYYCANWYYYYYGMDVWGQGTTVTVSS
VL: QSVLTQPPSVSAAPGQKVTISCSGSSSNIGNNYVSWYQQLPGTAPKLLLYDSNKRPSGIPARFSGSKSGTSATLGITGLQTGDEADYYCGTWDSSLNTVVFGGGTKLTVL
notes: as for B1
For the molecule B9, the binding result with Cyno ASGR-1 is “binds”; with Pig ASGR-1, “binds”; in the assay with Mouse ASGR-1, “no binding”.

B10: 6G7 (antibody, V domains shown)
VH: QVQLVESGGGVVQPGRSLRLSCAASGFTFSSYGMHWVRQTPGKGLEWVAIISYVGKNKYYADSVKGRFTISRDNSKNTLYLQMNSLRAEDTAVYYCARRGNSYGGYGMDVWGQGTTVTVSS
VL: DIQMTQSPSSRSASVGDRVTITCQASQDISNYLNWCQQKPGKALKLLIYDASTLETGVPSRFSGSGSGTDFTFTISSVQPEDIATYYCQQYDNVPITFGQGTRLEIK
notes: as for B1
For the molecule B10, the binding result in the assay with Cyno ASGR-1 is reported as “binds”; with Mouse ASGR-1 it was “no binding”.

B11: 54E9 (antibody, V domains shown)
VH: QVQLVQSGAEVKKPGASVKVSCKASGYTFNSYGISWVRLAPGQGLEWMGWISAYNGNTKNAQKLQGRVTMTTDTSTSTAYMELRSLRSDDTAVYYCARHDFWSGYYKGMDVWGQGTTVTVSS
VL: not shown
notes: as for B1
Regarding B11, the binding result in the assay with Cyno ASGR-1 is recorded as “binds”; with Mouse ASGR-1, “no binding”.

B12: 193E7 (antibody, V domains shown)
VH: QVQLQQWGAGLLKPSETLSLTCAVYGGSFSGYFWTWIRQPPGKGLEWIGEINHSGSTNYNPSLKSRVTISVDTSKNQFSLKLSSVTAADTAVYYCARDYGADYWGQGTLVAVSA
VL: DIQMTQSPSSLSASVGDRVTITCRASQGIRNDLGWYQQKPGKAPKRLIYSASSLQRGVPSRFSGSGSGTEFTLTISSLQPEDFATYYCLQHKRYPLTFGGGTKVEIK
notes: as for B1
Take B12: the figures for the binding result in the assay with Cyno ASGR-1 and in the assay with Mouse ASGR-1 were “binds” and “no binding”, respectively.

B13: 5E5 (antibody, V domains shown)
VH: QVQLVESGGGVVQPGRSLRLSCAASGFTFSNYVMHWVRQAPGKGLEWVAVIWYDGSNKYYADSVKGRFTISRDNSKNTLYLQMNSLRAEDTAVYYCTREVYSSGWYDYGMDVWGQGTTVTVSS
VL: DIQMTQSPSSLSASVGDRVTITCRASQGIRNDLGWYQQKPGKAPKRLIYAASSLQSGVPSRFSGSGSGTEFTLTISSLQPEDFATYYCLQHYSYPRTFGQGTKVEVK
notes: as for B1
Regarding B13, the binding result in the assay with Cyno ASGR-1 is reported as “binds”; with Mouse ASGR-1, “no binding”.
